From patent publication US20220064284A1 (Janssen / Centocor, published 2022)

What was measured:
[1] = molecular target: T1, GP5B305; assay: SPR (ProteOn XPR36), mAb captured on anti-mouse Fc, antigen 50 nM to 0.2 nM in solution
T1 construct: Used as the analyte in the ProteOn assay ('Antigens (scFV Fc Fusions)'); not shown: Hinge/Fc of HC2; all of HC1 (CD3B376 Fab heavy chain with C-terminal BCMB516-LH-scFv); CD3B376 light chain
Protocol: ProteOn XPR36 system (BioRad) was used to perform binding assays. ProteOn GLC chips (BioRad, Cat #176-5011) were coated with Anti-Mouse Fc antibody. Library Antibodies (Mouse IgG2a) diluted to 0.25 ug/ml to 1 ug/ml to reach approximately 100-200RL. Antigens (scFV Fc Fusions) are associated at 50 nM to 0.2 nM, 1:4 dilutions for 3 minutes. Dissociation for 30 mins. The results of the assay (Table 1 below) show picomolar affinity of GP5B318 with GP5B305. GP5B305 is a bi-specific antibody that includes HCl N-Terminal CD3B376-Fab/C-Terminal BCMB516-LH-scFv* and HC2 N-Terminal GP5B83 N23T, N30S-LH-scFv*.

[2] = molecular target: T2, GPRC5D CAR GP5DB83-HL expressed on SupT1 cells; assay: flow cytometry on GPRC5D CAR (GP5DB83-HL) SupT1 cells, unconjugated GP5B318 detected with PE-goat anti-mouse IgG, PE MFI
T2 construct: Chimeric antigen receptor with the GP5B83 scFv in VH-VL order; also called GP5DB83-HL CAR; CAR 1 (GP5B83-HL)
Protocol: SupT1 cells expressing GP5DB83-HL were compared to parental CAR-SupT1 cells. SupT1 cells expressing GP5DB83-HL and parental CAR-SupT1 cells were stained with near IR LIVE/DEAD fluorescent reactive dye on ice for 20 mins. After incubation, the cells were washed and resuspended in BSA stain buffer Cells (100,000 cells/well) were plated in a 96 well plate and incubated with increasing concentrations of GP5B318 for 30 minutes on ice with and without 10 μg/mL CAR-Fc Fusion protein, GP5B83_N24T_N315-HL-hu Fc-scFv (GP5B30.002). Following incubation, the samples were washed with BSA stain buffer and stained with PE-goat anti-mouse IgG polyclonal to detect bound antibody on live SupT1 cells. After incubation, washing, and fixation, the samples were acquired on a 10 color FACSCanto II flow cytometer. Analysis was done using FlowJo and the PE median fluorescent intensity of live SupT1 cells is plotted in FIG. 3. […] No binding was detected on CAR-SupT1 parental cells.

[3] = molecular target: T2, GPRC5D CAR GP5DB83-HL expressed on …; assay: flow cytometry on GPRC5D CAR (GP5DB83-HL) SupT1 cells, directly PE-conjugated GP5B318, PE MFI
Protocol: GP5B318 was conjugated to R-PE as described above and tested for binding to GP5DB83-HL SupT1 in the presence or absence of 10 μg/mL GP5DB83-scFv Fc fusion protein to assess the specificity of GP5B318 binding to GP5DB83-HL CAR and ensure CAR detection was not affected by PE labeling. GP5DB83-HL SupT1 cells were stained with near IR LIVE/DEAD fluorescent reactive dye in 50 mL tube on ice for 20 mins. After incubation, the cells were washed and resuspended in BSA stain buffer to 2×10⁶ cells/mL. 100,000 cells/well were seeded in 96 well plate and incubated with increasing concentrations of PE-GP5B318 and 10 μg/mL GP5DB83-scFv Fc for 45 minutes on ice. After incubation, washing, and fixation, the samples were acquired on a 10 color FACSCanto II flow cytometer. Analysis was performed using FlowJo analysis software and the PE median fluorescent intensity of live SupT1 cells is plotted in FIG. 4.

T1 sequence (scFv, as listed by the source limits assumed): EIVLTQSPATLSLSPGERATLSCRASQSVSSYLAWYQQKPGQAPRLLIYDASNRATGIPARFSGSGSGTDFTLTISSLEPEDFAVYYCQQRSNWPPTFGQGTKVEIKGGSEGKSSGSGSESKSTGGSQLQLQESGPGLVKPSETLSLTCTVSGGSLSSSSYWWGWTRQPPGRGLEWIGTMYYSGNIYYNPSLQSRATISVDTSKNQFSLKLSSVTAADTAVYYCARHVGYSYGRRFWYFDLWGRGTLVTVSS
T2 sequence (chain, as listed by the source limits assumed): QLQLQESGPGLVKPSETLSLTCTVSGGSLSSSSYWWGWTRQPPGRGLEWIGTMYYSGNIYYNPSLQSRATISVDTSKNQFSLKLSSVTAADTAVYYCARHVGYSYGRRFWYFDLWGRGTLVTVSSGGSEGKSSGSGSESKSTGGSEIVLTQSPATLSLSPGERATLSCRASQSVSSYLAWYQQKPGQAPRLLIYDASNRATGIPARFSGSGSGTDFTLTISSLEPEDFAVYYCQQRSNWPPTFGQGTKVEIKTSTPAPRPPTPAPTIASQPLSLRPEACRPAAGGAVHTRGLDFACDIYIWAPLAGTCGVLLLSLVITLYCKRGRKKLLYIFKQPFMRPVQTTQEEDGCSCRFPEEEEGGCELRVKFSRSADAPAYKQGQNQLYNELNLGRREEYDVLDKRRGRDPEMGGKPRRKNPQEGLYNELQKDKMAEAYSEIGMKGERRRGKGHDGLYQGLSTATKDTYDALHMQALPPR

Kd [1] | koff [1] | kon [1] | EC50 [2] | EC50 [3] | Binder
< 2.9 pM | < 2.9e-05 s⁻¹ | > 1e+07 M⁻¹ s⁻¹ | 0.03 µg/mL | – | GP5B318 (antibody, mouse IgG2a, kappa, V domains shown, made in HEK293 Expi or CHO; also called anti-idiotypic antibody GP5B318; chimeric mAb with human VH/VL and murine IgG2a/k) VH: EVQLVQSGAEVKKPGESLKISCKGSGYSFTSYWIGWVRQMPGKGLEWMGIIYPGDSDTRYSPSFQGQVTISADKSISTAYLQWSSLKASDTAMYYCARGWDYGTGEFDYWGQGTLVTVSS VL: EIVLTQSPGTLSLSPGERATLSCRASQSIGNWLNWYQQKPGKAPKLLIYYASSLQSGVPSRFSGSGSGTDFTLTISSLQPEDFAVYYCQQSLSFPITFGQGTKVEIKR
– | – | – | – | 0.1 µg/mL | PE-GP5B318 (antibody, mouse IgG2a, kappa, V domains shown, antibody conjugated to R-phycoerythrin, purified to a 1:1 PE:antibody ratio; site not stated, GP5B318 labelled with phycoerythrin (Expedeon kit); also called PE-P5B318; GP5B318 conjugated to R-PE) VH: EVQLVQSGAEVKKPGESLKISCKGSGYSFTSYWIGWVRQMPGKGLEWMGIIYPGDSDTRYSPSFQGQVTISADKSISTAYLQWSSLKASDTAMYYCARGWDYGTGEFDYWGQGTLVTVSS VL: EIVLTQSPGTLSLSPGERATLSCRASQSIGNWLNWYQQKPGKAPKLLIYYASSLQSGVPSRFSGSGSGTDFTLTISSLQPEDFAVYYCQQSLSFPITFGQGTKVEIKR
